pEC50, pIC50, pKd: −log10 of the molar value.
Experiments:
[1] = biological target: DR1GrpE: DR1 α chain 1–181 and β chain 1–190 fused C-terminally to GrpE, not biotinylated (human); experiment: AlphaScreen or HTRF
[2] = biological target: DR2a (DRA*0101/DRB5*0101) with non-biotinylated β chain, competitive LOCI assay (human); experiment: AlphaScreen or HTRF
[3] = biological target: DRB3*0301: DRA*0101/DRB3*0301 (human); experiment: AlphaScreen or HTRF
[4] = biological target: I-E^d (mouse MHC class II) (mouse) (UniProt P01904); experiment: AlphaScreen or HTRF
[5] = biological target: DP401: DPA1*0103/DPB1*0401 (human); experiment: AlphaScreen or HTRF
[6] = biological target: DRB1*0813: DRA*0101/DRB1*0813 (human); experiment: AlphaScreen or HTRF
[7] = biological target: DR2a (DRA*0101/DRB5*0101), biotinylated, direct LOCI assay at pH 6 (human); experiment: AlphaScreen or HTRF
[8] = biological target: DR4 (DRA*0101/DRB1*0401), biotinylated, LOCI assay (human); experiment: AlphaScreen or HTRF
[9] = biological target: ^125I labeled (Y)HA306–318 (influenza); experiment: radioligand binding

Row | Substance | pIC50 [1] | pIC50 [2] | pKd [3] | pKd [4] | pKd [5] | pKd [6] | pKd [7] | pKd [8] | pEC50 [9]
1 | 6xH Influenza A (PR8) HA 109–119 peptide … | 6.49 | 7.64 | 5.82 | 6.01 | 9.00 | 6.74 | 8.05 | 5.73 | –
2 | DR1: DRA*0101(1–191)/DRB1*0101(1–198) (complex) | – | – | – | – | – | – | – | – | 7.70

— publication PMC2690590, “Functional recombinant MHC class II molecules and high-throughput peptide-binding assays” (Immunome Research, 2009)
